Experimental data published in PMC12102759.

B1: ATXN2 peptide 913-928 (Ataxin-2), 16-mer library wild type / PABPC1 PABC (PABPC1 PABC domain, residues 544-623) (parent)
chain 1: TLNPNAKEFNPRSFSQ
chain 2: PLTASMLASAPPQEQKQMLGERLFPLIQAMHPTLAGKITGMLLEIDNSELLHMLESPESLRSKVDEAVAVLQAHQAKEAA
B2: PAIP1 peptide 126-141 (Polyadenylate-binding protein-interacting protein 1), 16-mer library wild type / PABPC1 PABC (PABPC1 PABC domain, residues 544-623) (parent)
chain 1: SKLSVNAPEFYPSGYS
chain 2: B1 chain 2

Variants of: B1
Assay: proteomic peptide phage display deep mutational scan (ProP-PD DMS): M13 P8 16-mer library selected against immobilised GST-tagged bait for four days (rounds), NGS of the eluted pools per day and pseudo-replica
Settings: with PABPC1 PABC (PABPC1 PABC domain, residues 544-623); bait immobilised on MaxiSorp plates (10 µg), library pre-cleared on GST, 2 h binding at 4 °C, five washes; one round per day, days 1-4; value from days 2 and 3; scale: average fractional NGS count over selection days 2 and 3

Variant | screen value
chain 1 TLTPNAKEFNPRSFSQ [chain 1 N3T] | 8.32e-05
chain 1 TLAPNAKEFNPRSFSQ [chain 1 N3A] | 0
chain 1 TLHPNAKEFNPRSFSQ [chain 1 N3H] | 0
chain 1 TLPPNAKEFNPRSFSQ [chain 1 N3P] | 0
chain 1 TLIPNAKEFNPRSFSQ [chain 1 N3I] | 0
chain 1 TLKPNAKEFNPRSFSQ [chain 1 N3K] | 0
chain 1 TDNPNAKEFNPRSFSQ [chain 1 L2D] | 0
chain 1 TLNSNAKEFNPRSFSQ [chain 1 P4S] | 0.000147
chain 1 TLNYNAKEFNPRSFSQ [chain 1 P4Y] | 0
chain 1 TLNWNAKEFNPRSFSQ [chain 1 P4W] | 0
chain 1 TLNQNAKEFNPRSFSQ [chain 1 P4Q] | 0.000331
chain 1 TLNFNAKEFNPRSFSQ [chain 1 P4F] | 0.000109
chain 1 TLNANAKEFNPRSFSQ [chain 1 P4A] | 0.000191
chain 1 TLNENAKEFNPRSFSQ [chain 1 P4E] | 1.57e-05
chain 1 TLNPNAKEFNPRSTSQ [chain 1 F14T] | 0.000127
chain 1 TLNPNAKEFNPRSSSQ [chain 1 F14S] | 8.48e-05

Variant | screen value
chain 1 TLNPNAKEFNPRSDSQ [chain 1 F14D] | 0.000335
chain 1 TLNPNAKEFKPRSFSQ [chain 1 N10K] | 0.000142
chain 1 TLNPNAKEFGPRSFSQ [chain 1 N10G] | 0.000262
chain 1 TLNPNAKEFEPRSFSQ [chain 1 N10E] | 2.66e-05
chain 1 TLNPNAKEFVPRSFSQ [chain 1 N10V] | 1.03e-05
chain 1 TLNPPAKEFNPRSFSQ [chain 1 N5P] | 1.03e-05
chain 1 TLNPWAKEFNPRSFSQ [chain 1 N5W] | 0.000157
chain 1 TLNPYAKEFNPRSFSQ [chain 1 N5Y] | 0.000372
chain 1 TLNPSAKEFNPRSFSQ [chain 1 N5S] | 0.000305
chain 1 TLNPNAMEFNPRSFSQ [chain 1 K7M] | 3.88e-05
chain 1 TLNPNAEEFNPRSFSQ [chain 1 K7E] | 0.000169
chain 1 TLNPNAREFNPRSFSQ [chain 1 K7R] | 0.000217
chain 1 TLNPNAKEQNPRSFSQ [chain 1 F9Q] | 0
chain 1 TLNPNAKEGNPRSFSQ [chain 1 F9G] | 0
chain 1 TLNPNAKEYNPRSFSQ [chain 1 F9Y] | 0.000112

Continued, values first:

screen value | Variant
0.000175 | chain 1 TLNPNAKEFNPRSFYQ [chain 1 S15Y]
6.16e-05 | chain 1 TLNPNAKEFNPRSFLQ [chain 1 S15L]
0.00027 | chain 1 TLNPNAKEFNPRSFKQ [chain 1 S15K]
0.000264 | chain 1 TLNPNAKEFNPRSFNQ [chain 1 S15N]
2.11e-05 | chain 1 TLNPNAKEFNPRSFTQ [chain 1 S15T]
0.000115 | chain 1 ELNPNAKEFNPRSFSQ [chain 1 T1E]
4.71e-05 | chain 1 WLNPNAKEFNPRSFSQ [chain 1 T1W]
0.000147 | chain 1 SLNPNAKEFNPRSFSQ [chain 1 T1S]
0.000237 | chain 1 QLNPNAKEFNPRSFSQ [chain 1 T1Q]
0.00026 | chain 1 TLNPNAKEFNPRHFSQ [chain 1 S13H]
0.000117 | chain 1 TLNPNAKEFNPREFSQ [chain 1 S13E]
0.000163 | chain 1 TLNPNAKEFNPRMFSQ [chain 1 S13M]
0.000149 | chain 1 TLNPNAKEFNPRKFSQ [chain 1 S13K]
7.96e-05 | chain 1 TLNPNAKEFNPRFFSQ [chain 1 S13F]
0 | chain 1 TLNPNAKEFNPRIFSQ [chain 1 S13I]
0.000423 | chain 1 TLNPNAKEFNPRVFSQ [chain 1 S13V]
9.64e-06 | chain 1 TLNPNAKEFNIRSFSQ [chain 1 P11I]

Variants of: B2
Assay: as above
Settings: with PABPC1 PABC (PABPC1 PABC domain, residues 544-623); bait immobilised on MaxiSorp plates (10 µg), library pre-cleared on GST, 2 h binding at 4 °C, five washes; one round per day, days 1-4; value from days 2 and 3; keep out of graded; scale: average fractional NGS count over selection days 2 and 3

Variant | screen value
chain 1 SKLSVNAPFFYPSGYS [chain 1 E9F] | 0.00034
chain 1 SKLSVNAPNFYPSGYS [chain 1 E9N] | 0.00191
chain 1 SKLSVNAPYFYPSGYS [chain 1 E9Y] | 0.000173
chain 1 SKLSVNAPQFYPSGYS [chain 1 E9Q] | 0.000332
chain 1 SKLSVNAPTFYPSGYS [chain 1 E9T] | 0.00117
chain 1 SKLSVNAPPFYPSGYS [chain 1 E9P] | 0.000543
chain 1 SKLSVNAPDFYPSGYS [chain 1 E9D] | 0.000746
chain 1 SKLSVNAPHFYPSGYS [chain 1 E9H] | 0.00439
chain 1 SKLSVNAPIFYPSGYS [chain 1 E9I] | 8.24e-05
chain 1 SKLSVNAPMFYPSGYS [chain 1 E9M] | 0.00247
chain 1 SKLSVNAPSFYPSGYS [chain 1 E9S] | 0.00129
chain 1 SKLSVNAPVFYPSGYS [chain 1 E9V] | 0.000182
chain 1 SKLSVNAPKFYPSGYS [chain 1 E9K] | 0.000266
chain 1 SKLSVNAPLFYPSGYS [chain 1 E9L] | 0.000721
chain 1 SKLSVNAPRFYPSGYS [chain 1 E9R] | 4.17e-05
chain 1 SKLSVNADEFYPSGYS [chain 1 P8D] | 0.000406
chain 1 SKLSVNAREFYPSGYS [chain 1 P8R] | 0.000635

Variant | screen value
chain 1 SKLSVNAVEFYPSGYS [chain 1 P8V] | 0.00064
chain 1 SKLSVNAGEFYPSGYS [chain 1 P8G] | 0.000696
chain 1 SKLSVNAQEFYPSGYS [chain 1 P8Q] | 0.000383
chain 1 SKLSVNAIEFYPSGYS [chain 1 P8I] | 0.000615
chain 1 SKLSVNALEFYPSGYS [chain 1 P8L] | 0.000643
chain 1 SKLSVNAFEFYPSGYS [chain 1 P8F] | 0.000185
chain 1 SKLSVNAKEFYPSGYS [chain 1 P8K] | 8.32e-05
chain 1 SKLSVNAAEFYPSGYS [chain 1 P8A] | 0.000105
chain 1 SKLSVNAMEFYPSGYS [chain 1 P8M] | 0.00039
chain 1 SKLSVNANEFYPSGYS [chain 1 P8N] | 0.0134
chain 1 SKLSVNASEFYPSGYS [chain 1 P8S] | 0.000241
chain 1 SGLSVNAPEFYPSGYS [chain 1 K2G] | 0.000321
chain 1 SALSVNAPEFYPSGYS [chain 1 K2A] | 0.000319
chain 1 SVLSVNAPEFYPSGYS [chain 1 K2V] | 0.000896
chain 1 SILSVNAPEFYPSGYS [chain 1 K2I] | 0
chain 1 SHLSVNAPEFYPSGYS [chain 1 K2H] | 4.17e-05
chain 1 SWLSVNAPEFYPSGYS [chain 1 K2W] | 0.000491

Second part, the variant after the results:

screen value | Variant
0 | chain 1 SKLSVNAPEFYPPGYS [chain 1 S13P]
4.28e-05 | chain 1 SKLSVNAPEFYPGGYS [chain 1 S13G]
0.00287 | chain 1 SKLSVNAPEFYPNGYS [chain 1 S13N]
0.000235 | chain 1 SKLSVNAPEFYPLGYS [chain 1 S13L]
0.000556 | chain 1 SKLSVNAPEFYPFGYS [chain 1 S13F]
0.000936 | chain 1 SKLSVNAPEFYPIGYS [chain 1 S13I]
0.000367 | chain 1 SKLSVNAPEFYPHGYS [chain 1 S13H]
0.000161 | chain 1 SKLSVNAPEFYPEGYS [chain 1 S13E]
0 | chain 1 SKLSVNAPEFYPDGYS [chain 1 S13D]
0.000419 | chain 1 SKLSVNAPEFYPMGYS [chain 1 S13M]
0.000763 | chain 1 SKLSVNAWEFYPSGYS [chain 1 P8W]
0.0021 | chain 1 SKLSVNAYEFYPSGYS [chain 1 P8Y]
